Laboratory results taken from patent US6518397B1, “Pharmaceuticals for modulating hormone responsiveness” (priority 1995, dated 2003).

T1: DNA binding domain of recombinant rat androgen receptor (AR) / calreticulin (p60) (Homo sapiens, UniProt P27797)
T1 construct: endogenous in cells
T1 sequence (P27797 18-417): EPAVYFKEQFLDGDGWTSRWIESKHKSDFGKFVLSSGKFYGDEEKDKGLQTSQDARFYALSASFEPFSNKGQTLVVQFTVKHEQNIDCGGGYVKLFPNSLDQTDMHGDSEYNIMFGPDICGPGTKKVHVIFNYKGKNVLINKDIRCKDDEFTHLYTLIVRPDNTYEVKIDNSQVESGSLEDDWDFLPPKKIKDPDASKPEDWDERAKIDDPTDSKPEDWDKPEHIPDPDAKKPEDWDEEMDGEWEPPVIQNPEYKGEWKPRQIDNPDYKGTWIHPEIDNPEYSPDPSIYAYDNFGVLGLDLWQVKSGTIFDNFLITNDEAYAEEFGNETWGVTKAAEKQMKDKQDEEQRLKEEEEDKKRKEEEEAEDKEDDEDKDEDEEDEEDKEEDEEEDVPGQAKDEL

B1: p60 (calreticulin): 60 kDa protein, calreticulin, purified by affinity chromatography on KLGFFKR-sepharose (protein)
chain: T1 sequence (P27797 18-417)

Columns and labels:
[1] = test system: calreticulin mRNA in MC3T3 cells; assay: Calreticulin mRNA levels in MC3T3 cells; format: cell-based, mouse
Method: Calreticulin expression levels in these cell types are determined at the outset by Western blot analysis. In addition to utilizing these stable expression vectors, we construct inducible calreticulin expression sense- and antisense-cDNA expression vectors driven by strong metal inducible promoters (Filmus et al., 1992). The inducible vectors allow us to turn calreticulin expression on or off at will. In the MC3T3 cells, 1,25,dihydroxyvitamin D3 has a proliferative effect on these cells at subconfluency, but when added to confluent, mineralizing cultures, it enhances the mineralization process. The transfected cells are analyzed for the level of calreticulin expression by Western blot analysis as described by us previously as well as by Northern blot analysis for mRNA levels. The effect of up or down regulation of calreticulin is determined in terms of the above mentioned responses to 1,25 dihydroxyvitamin D3. In addition, the effect on the expression of vitamin D responsive genes, such as c-fos and integrin b3 subunit (Xu et al., 1993) is determined by Northern blot and Western blot analysis. […] The luciferase activity in mock transfected versus calreticulin sense- and antisense-cDNA transfected cells (stable and inducible) is then be determined as described by us previously (see Example 6). […]

AP-1 = assay: Binding of AP-1 to DNA
[2] = biological target: T1, DNA binding domain of recombinant rat androgen receptor (AR) / calreticulin (p60); assay: Gel mobility shift (gel retardation) assay: calreticulin (p60) inhibition of AR-ARE binding and its reversal by peptides/antibody; conditions: protein pre-incubated with AR 30 min at 4° C.
Method: To determine whether p60 (calreticulin) could directly modulate the binding of nuclear hormone receptors to DNA via the KXFFX^1R [SEQ ID NO:1] sequence, the interaction of the DNA binding domain of recombinant androgen receptor with its hormone responsive element was analyzed by carrying out gel mobility shift assays.
As described in Rennie et al., 1993, DNA binding domain of recombinant rat androgen receptor was prepared as a GST-fusion protein using the pGEX-3X vector and purified by glutathione-agarose affinity chromatography. p60 (calreticulin) was purified by affinity chromatography on KLGFFKR-sepharose [SEQ ID NO:7], followed by gel electrophoresis as described in detail in Rojiani et al., 1991. […] Recombinant calreticulin (GST-fusion protein) was prepared as described by Baksh and Michalak, 1991. Gel retardation assays were carried out as described by Rennie et al., 1993. To analyze the effect of p60, or recombinant calreticulin, on receptor-DNA binding activity, the AR was pre-incubated with p60 for 30 min at 4° C. To analyze the effects of synthetic peptides, anti-calreticulin antibody, and non-immune IgG on p60 inhibition of AR-ARE binding, the peptide, antibody or IgG were pre-incubated with p60 for 30 min at 4° C. The androgen receptor preparation was then added to these mixtures and further incubated for 30 min at 4° C.
Affinity purified DNA binding domain of the recombinant rat androgen receptor (AR) was pre-incubated with or without the indicated concentrations of purified p60 at 4° C. for 30 min. After this pre-incubation the reaction mixtures were incubated with ^32P-labeled 26 base pair ARE (Rennie et al., 1993) (androgen response element), and analyzed by gel retardation assay. The sequence of the ARE used was [SEQ ID NO:28]:
Amino acids in the KXFFX^1R [SEQ ID NO: 1] sequence were modified. Androgen receptor and calreticulin were incubated in the presence of the modified peptides and allowed to interact with an oligonucleotide containing the androgen response element (the method of this assay is described in Example 3). The interaction was analyzed by gel mobility shaft assay (FIGS. 5A-5C).

Row | Molecule | Calreticulin mRNA levels [1] | Effect on binding of AP-1 to DNA (AP-1) | Effect of protein on AR-ARE (receptor-DNA) complex formation [2]
1 | C=C1/C(=C\C=C2/CCC[C@]3(C)[C@@H]([C@H](C)CCCC(C)(C)O)CC[C@@H]23)C[C@@H](O)C[C@@H]1O [1,25,dihydroxyvitamin D3] | upregulates calreticulin mRNA levels |  | 
2 | B1 |  | did not effect the binding of AP-1 to DNA | dose-dependent inhibition in the formation of this complex
